Values quoted from earlier work as cited in patent publication US20070155650A1, “Use of cathepsin z inhibitors for the treatment of rhuematoid arthritis and other autoimmune diseases” (AVENTIS PHARMACEUTICALS INC., priority 2003, published 2007).
Read-outs that look alike come from different tables or passages of the source. Each block holds one molecule with its values, some of them ahead of it.

Tests used:
Cathepsin B = Cathepsin B (Homo sapiens, UniProt P07858); conditions: result in words
Cathepsin Z = Cathepsin Z (Homo sapiens, UniProt Q9UBR2); conditions: result in words
Cathepsin Z, sequence (Q9UBR2 62-303): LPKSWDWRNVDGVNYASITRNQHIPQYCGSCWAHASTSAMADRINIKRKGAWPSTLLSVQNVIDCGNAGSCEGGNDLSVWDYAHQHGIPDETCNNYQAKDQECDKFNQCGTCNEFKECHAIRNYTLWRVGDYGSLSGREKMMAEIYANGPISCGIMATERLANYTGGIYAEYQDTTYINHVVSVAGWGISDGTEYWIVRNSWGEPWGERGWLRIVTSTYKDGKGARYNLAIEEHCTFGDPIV

- Cathepsin Z activity inhibited or not (Cathepsin Z): inhibited
B1: stefin B: protein inhibitor shown to inhibit Cathepsin Z activity (protein, UniProt P04080 1-98, looked up)
Cystatin-B: MMCGAPSATQPATAETQHIADQVRSQLEEKENKKFPVFKAVSFKSQVVAGTNYFIKVHVGDEDFVHLRVFQSLPHENKPLTLSNYQTNKAKHDELTYF

- Cathepsin Z activity inhibited or not (Cathepsin Z): inhibited
B2: stefin A: protein inhibitor shown to inhibit Cathepsin Z activity (protein, UniProt P01040 1-98, looked up)
Cystatin-A: MIPGGLSEAKPATPEIQEIVDKVKPQLEEKTNETYGKLEAVQYKTQVVAGTNYYIKVRAGDNKYMHLKVFKSLPGQNEDLVLTGYQVDKNKDDELTGF

Continued, molecule first:

Molecule: CCCNC(=O)[C@H]1O[C@@H]1C(=O)N[C@H](C(=O)N1CCC[C@H]1C(=O)O)[C@@H](C)CC [CA-074]
- Cathepsin B activity inhibited (Cathepsin B): block Cathepsin B activity
- Cathepsin B activity inhibited (Cathepsin B; listed as CA-704): known synthetic inhibitors of Cathepsin B
- Cathepsin Z activity inhibited or not (Cathepsin Z): inhibited

B3: cystatin C: protein inhibitor shown to inhibit Cathepsin Z activity (protein, UniProt P01034 27-146, looked up)
Cystatin-C: SSPGKPPRLVGGPMDASVEEEGVRRALDFAVGEYNKASNDMYHSRALQVVRARKQIVAGVNYFLDVELGRTTCTKTQPNLDNCPFHDQPHLKRKAFCSFQIYAVPWQGTMTLSKSTCQDA
- Cathepsin Z activity inhibited or not (Cathepsin Z): inhibited

B4: chicken cystatin: protein inhibitor shown to inhibit Cathepsin Z activity (protein, UniProt P01038 24-139, looked up)
Cystatin: SEDRSRLLGAPVPVDENDEGLQRALQFAMAEYNRASNDKYSSRVVRVISAKRQLVSGIKYILQVEIGRTTCPKSSGDLQSCEFHDEPEMAKYTTCTFVVYSIPWLNQIKLLESKCQ
- Cathepsin Z activity inhibited or not (Cathepsin Z): inhibited
